Assay results as given in US20160279193A1 (NORWEGIAN UNIVERSITY OF SCIENCE AND TECHNOLOGY, published 2016).
Each block holds one molecule with its values, some of them ahead of it.

Legend:
[1] = target: PCNA (endogenous, in human cells and their extracts) (human) (UniProt P12004); assay: co-IP with anti-PCNA antibody from formaldehyde-crosslinked HaCaT cell extract, gel, Orbitrap MS
[2] = target: TAO1 (human) (UniProt Q7L7X3); assay: mock co-IP with anti-TOM20 antibody from crosslinked HaCaT cell extract, Orbitrap MS
[3] = target: MK2 (human) (UniProt P49137); assay: as above
[4] = target: PACT (human) (UniProt O75569); assay: as above
[5] = target: T1, PCNA labeled with a fluorescent molecule (UniProt P12004 1-261, labeled with a fluorescent molecule (dye and site not stated)); assay: microscale thermophoresis, fluorescently labelled PCNA, peptide titrated
T1 construct: also called proliferating cell nuclear antigen
Method: Microscale thermophoresis (MST) was used to determine the dissociation constant for various APIM containing peptides.
PCNA was labeled with a fluorescent molecule. The concentration of PCNA was kept constant, whereas dilutions of each APIM containing peptide were prepared (1:1).

Chain of PCNA (endogenous, in human cells and their extracts) (human) (P12004 whole entry): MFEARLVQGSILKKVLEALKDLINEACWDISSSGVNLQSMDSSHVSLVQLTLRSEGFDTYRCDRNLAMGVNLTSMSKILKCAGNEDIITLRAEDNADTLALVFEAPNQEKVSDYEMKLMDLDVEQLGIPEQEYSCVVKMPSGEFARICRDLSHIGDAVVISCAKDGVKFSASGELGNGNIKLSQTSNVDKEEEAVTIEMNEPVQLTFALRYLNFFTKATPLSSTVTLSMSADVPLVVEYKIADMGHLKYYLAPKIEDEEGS
Chain of PACT (human) (O75569 whole entry): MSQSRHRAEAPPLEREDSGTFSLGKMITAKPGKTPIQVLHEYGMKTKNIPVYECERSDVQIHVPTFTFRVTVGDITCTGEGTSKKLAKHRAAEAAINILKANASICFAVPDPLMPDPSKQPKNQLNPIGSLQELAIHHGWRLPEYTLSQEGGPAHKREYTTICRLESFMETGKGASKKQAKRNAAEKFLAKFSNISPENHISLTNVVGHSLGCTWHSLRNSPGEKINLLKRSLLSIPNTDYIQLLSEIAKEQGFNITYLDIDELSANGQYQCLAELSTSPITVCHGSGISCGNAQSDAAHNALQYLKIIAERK
Chain of TAO1 (human) (Q7L7X3 whole entry): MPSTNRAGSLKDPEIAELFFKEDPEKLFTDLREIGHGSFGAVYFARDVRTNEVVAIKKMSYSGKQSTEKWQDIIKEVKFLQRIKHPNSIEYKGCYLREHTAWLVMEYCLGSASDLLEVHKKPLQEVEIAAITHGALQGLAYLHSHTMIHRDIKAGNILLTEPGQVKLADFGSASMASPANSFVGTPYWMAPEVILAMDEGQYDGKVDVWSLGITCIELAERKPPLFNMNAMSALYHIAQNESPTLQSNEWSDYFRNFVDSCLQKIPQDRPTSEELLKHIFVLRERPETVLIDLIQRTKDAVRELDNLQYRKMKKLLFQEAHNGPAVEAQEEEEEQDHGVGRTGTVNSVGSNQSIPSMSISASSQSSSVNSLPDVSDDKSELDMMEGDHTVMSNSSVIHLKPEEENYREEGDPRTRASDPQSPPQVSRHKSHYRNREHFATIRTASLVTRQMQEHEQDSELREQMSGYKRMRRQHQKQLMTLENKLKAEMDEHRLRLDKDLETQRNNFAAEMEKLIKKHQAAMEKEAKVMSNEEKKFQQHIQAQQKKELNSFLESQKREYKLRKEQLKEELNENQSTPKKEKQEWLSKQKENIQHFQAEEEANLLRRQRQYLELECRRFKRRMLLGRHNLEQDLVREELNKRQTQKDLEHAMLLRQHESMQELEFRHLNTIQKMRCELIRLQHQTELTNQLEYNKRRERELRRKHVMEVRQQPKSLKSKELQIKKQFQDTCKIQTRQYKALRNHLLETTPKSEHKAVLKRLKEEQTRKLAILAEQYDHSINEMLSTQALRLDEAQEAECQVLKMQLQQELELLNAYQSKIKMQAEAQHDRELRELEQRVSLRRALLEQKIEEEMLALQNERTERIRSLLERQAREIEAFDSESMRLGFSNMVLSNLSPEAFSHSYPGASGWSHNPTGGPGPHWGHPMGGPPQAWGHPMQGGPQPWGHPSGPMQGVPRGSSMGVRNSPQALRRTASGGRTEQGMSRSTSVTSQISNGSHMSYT
Chain of MK2 (human) (P49137 whole entry): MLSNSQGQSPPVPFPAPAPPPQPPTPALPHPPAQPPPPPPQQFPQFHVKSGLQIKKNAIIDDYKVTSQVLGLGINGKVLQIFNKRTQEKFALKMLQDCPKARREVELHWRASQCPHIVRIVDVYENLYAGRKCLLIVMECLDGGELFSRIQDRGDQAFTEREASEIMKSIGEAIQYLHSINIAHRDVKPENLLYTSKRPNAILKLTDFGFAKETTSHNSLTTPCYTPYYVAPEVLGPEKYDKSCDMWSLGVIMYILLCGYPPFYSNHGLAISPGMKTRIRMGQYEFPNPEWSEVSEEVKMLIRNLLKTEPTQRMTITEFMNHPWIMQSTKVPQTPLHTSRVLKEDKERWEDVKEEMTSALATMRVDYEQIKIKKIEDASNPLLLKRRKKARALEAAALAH
T1 sequence (P12004 whole entry): as the sequence (P12004 whole entry) above

Molecule: TOM20 (from UniProt Q15388 1-145)
Mascot-score (PCNA pull down) [1]: 32.5

Molecule: PACT (from UniProt O75569 1-313)
Mascot score (PCNA pull down) [1]: 23
Sequest score (PCNA pull down) [1]: 2.06

Molecule: MK2 (from UniProt P49137 1-400) (enzyme)
Mascot score (PCNA pull down) [1]: 27.6
Sequest score (PCNA pull down) [1]: 6.33

B1: R11 (peptide)
peptide: RRRRRRRRRRR
notes: Cell penetrating peptide part alone, used as a control; also called R11 peptide; R11 (negative control)
binding result [5]: no binding

Continued, values first:

Mascot score (PCNA pull down) [1]: 49.8
Sequest score (PCNA pull down) [1]: 11.1
Molecule: TAO1 (from UniProt Q7L7X3 1-1001) (enzyme)

Sequest score (mock anti-TOM20 pull down) [2]: 2.09
Sequest score (mock anti-TOM20 pull down) [3]: 1.79
Mascot score (mock anti-TOM20 pull down) [4]: 25.1
Sequest score (mock anti-TOM20 pull down) [4]: 1.61
Molecule: mock antibody specific for TOM20
